We go through two molecules from CN113372440A (SUN YAT SEN UNIV CANCER CENTER SUN YAT SEN UNIV AFFILIATED …, dated 2021).

Like-named read-outs stand apart in the source and are kept apart here.

The target of test [1] is T1, gLgH蛋白 (recombinant single-chain EBV M81 gL ectodomain - linker - gH ectodomain - 6xHis) (Epstein-Barr virus (M81 strain, …)).
Test [2] addresses gH/gL glycoprotein on EBV virions produced by AKATA cells (Epstein-Barr virus, UniProt P03231 19-706; P03212 23-137). In words: cell-based or functional assay.
Test [3] addresses T1, gLgH蛋白 (recombinant single-chain EBV …). Put plainly: ELISA, gLgH coated at 2 μg/mL, antibody titrated from 1 μg/mL, HRP goat anti-mouse IgG (Fig. 1). A general note: An ELISA detects its analyte on a solid surface through an enzyme-linked reagent.
Test [4] has the same target. In words: ELISA by the method of Example 1 step 5, gLgH coated (Fig. 8).
For test [5] the target is unchanged. In words: SPR by the method of Example 4 (Biacore 8K, Protein A capture, gLgH as analyte) (Fig. 9).

B1: 单克隆抗体6H2 (anti-EBV gLgH mouse monoclonal antibody 6H2) (antibody, V domains shown)
VH: EVKLLESGGGLVQPGGSLKLSCAASGFDFSRYWMTWVRQAPGQGLEWIGEINPDSSTINYTPSLKDKFIISRDNAKNTLYLQVSKLRSEDTALYYCARSPYYYGSSYDVWGAGTAVTVSS
VL: DIVMSQSPSSLAVSAGEKVTMNCKSSQSLLNSRTRKNYLAWYQQKPGQSPKLLIYWASTRESGVPDRFTGSGSGTDFTLTISSVQAEDLAFYYCKQSYNLPTFGGGTKLEIK
notes: also called 单抗6H2; 中和抗体6H2
In general, Kd refers to a measure of binding affinity in units of concentration. Usually EC50 stands for the midpoint of the concentration-response curve. For the molecule B1, the dissociation constant Kd in test [1] was 2.8 nM. Further, the “IC50 in the epithelial cell infection model (HNE1 cells, GFP-EBV, inhibition of GFP-positive cells)” value in test [2] amounted to 0.108 µg/mL. Besides, the EC50 in test [3] was determined as 0.0134 µg/mL.

B2: 嵌合单抗C6H2 (mouse 6H2 variable regions on human IgG1/kappa constant regions) (antibody, V domains shown)
VH: EVKLLESGGGLVQPGGSLKLSCAASGFDFSRYWMTWVRQAPGQGLEWIGEINPDSSTINYTPSLKDKFIISRDNAKNTLYLQVSKLRSEDTALYYCARSPYYYGSSYDVWGAGTAVTVSS
VL: DIVMSQSPSSLAVSAGEKVTMNCKSSQSLLNSRTRKNYLAWYQQKPGQSPKLLIYWASTRESGVPDRFTGSGSGTDFTLTISSVQAEDLAFYYCKQSYNLPTFGGGTKLEIKR
notes: also called 嵌合抗体C6H2
For B2, the EC50 in test [4] amounted to 0.0266 µg/mL. In test [5], the dissociation constant (Kd) was determined as 11.5 nM.
